Drawing on patent US20240218342A1, “SITE-SPECIFIC GLYCAN REMODELING OF LYSOSOMAL ENZYMES AND APPLICATIONS THEREOF” (priority 2021, published 2024), this text covers transglycosylation of oxazoline 1 to the GlcNAc-peptide, yield of glycopeptide 66 for one substance.

This assay concerns the target GlcNAc-peptide derived from rhGAA containing N470 glycosite (human).

Sequence of GlcNAc-peptide derived from rhGAA containing N470 glycosite (human) (peptide, as listed by the source): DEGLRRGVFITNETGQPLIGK

For Endo A-N171A (enzyme), the transglycosylation of oxazoline 1 to the GlcNAc-peptide, yield of glycopeptide 66 amounted to 53%.
